{"source": "paper PMC6377645", "about": "“Structural insights into chaperone addiction of toxin-antitoxin systems” (Nature Communications, 2019)", "binders": {"B1": {"name": "Mtb-SecB^TA chaperone (Rv1957), His6-tag removed (natural protein)", "chain": "MTDRTDADDLDLQRVGARLAARAQIRDIRLLRTQAAVHRAPKPAQGLTYDLEFEPAVDADPATISAFVVRISCHLRIQNQAADDDVKEGDTKDETQDVATADFEFAALFDYHLQEGEDDPTEEELTAYAATTGRFALYPYIREYVYDLTGRLALPPLTLEILSRPMPVSPGAQWPATRGTP", "notes": "SecB-like chaperone Mtb-SecB^TA (Rv1957) of Mycobacterium tuberculosis, 181 amino acids; untagged mass printed as 20,388 Da; Residues of the pET15b vector may remain after thrombin cleavage (surmised from the printed mass); For MST the protein was labelled with the dye NT-647; also called SecB-like chaperone; TA-associated SecB chaperone; not shown: His6, N-terminal, cleaved"}, "B2": {"name": "ChAD peptide, Mtb-HigA1(104-116) (peptide)", "peptide": "EVPTWHRLSSYRG", "notes": "residues 104-116 of the antitoxin Mtb-HigA1 of Mycobacterium tuberculosis (chaperone addiction region); also called C4; 13-mer ChAD peptide"}}, "key": {"[1]": {"biological_target": "B2", "assay": "ITC; reverse conditions (protocol of the reverse titration not described); 12 °C; 20 mM MES, 200 mM NaCl, pH 6.5", "details": "both partners purified"}, "[2]": {"biological_target": "the molecule itself", "assay": "SEC-MALS; Superdex 200 Increase 5/150; 20 mM MES, 200 mM NaCl, pH 6.5; 15 °C; Mtb-SecB^TA 49.1 µM, Mtb-SecB^TA/HigA1 6.5 µM, Mtb-HigA1^ΔC42 100 µM"}, "[3]": {"biological_target": "the molecule itself", "assay": "SEC-MALS"}, "[4]": {"biological_target": "B1", "assay": "native MS; Mtb-SecB^TA/HigA1 9.7 µM (hexamer) in 200 mM ammonium acetate pH 7, with 0 to 16 ChAD peptide molecules per hexamer", "details": "both partners purified"}, "[5]": {"biological_target": "B1", "assay": "SEC-MALS; Superdex 200 Increase 5/150; 20 mM MES, 200 mM NaCl, pH 6.5; 15 °C; Mtb-SecB^TA 49.1 µM, Mtb-SecB^TA/HigA1 6.5 µM, Mtb-HigA1^ΔC42 100 µM", "details": "both partners purified"}, "[6]": {"biological_target": "B1", "assay": "MST; 100 nM NT-647-labelled Mtb-SecB^TA with 3 nM to 100 µM ChAD peptide; 20 mM MES, 200 mM NaCl, 0.025% Tween 20, pH 6.5; 22 °C", "details": "both partners purified"}, "[7]": {"biological_target": "B1", "assay": "ITC; ChAD peptide (80-620 µM) injected into Mtb-SecB^TA (18-48 µM) in the cell; 12 °C; 20 mM MES, 200 mM NaCl, pH 6.5; one set of sites; Kd and enthalpy printed once for direct and reverse conditions", "details": "both partners purified"}, "[8]": {"biological_target": "B1", "assay": "native MS; Mtb-SecB^TA 11.8 µM (tetramer) in 200 mM ammonium acetate pH 7, titrated with ChAD peptide at molar ratios 0 to 20 per tetramer; control peptides C2, C3, C7 at 8 peptides per tetramer; Kd fitted with UniDec, 4 sites, all KD's free", "details": "both partners purified"}}, "note": "Several values for one entry are separate records, joined by “and”; a condition that tells them apart may be missing. Identical values can stand only once.", "data": [{"binder": "B1", "values": [{"measurement": "stoichiometry N", "setting": "[1]", "result": 2.2}, {"measurement": "stoichiometry N", "setting": "[2]", "result": 4}]}, {"binder": "Mtb-SecB^TA with a N-terminal His6-tag (before thrombin cleavage) (natural protein, SecB-like chaperone Mtb-SecB^TA (Rv1957) of Mycobacterium tuberculosis, 181 amino acids; also called His6-Mtb-SecB^TA; not shown: His6, N-terminal, kept) MTDRTDADDLDLQRVGARLAARAQIRDIRLLRTQAAVHRAPKPAQGLTYDLEFEPAVDADPATISAFVVRISCHLRIQNQAADDDVKEGDTKDETQDVATADFEFAALFDYHLQEGEDDPTEEELTAYAATTGRFALYPYIREYVYDLTGRLALPPLTLEILSRPMPVSPGAQWPATRGTP", "values": [{"measurement": "stoichiometry N", "setting": "[3]", "result": "8 and 4"}]}, {"binder": "Mtb-HigA1 antitoxin, full length, untagged (natural protein, antitoxin HigA1 of the TAC system of Mycobacterium tuberculosis, untagged; Obtained only in complex with Mtb-SecB^TA (4:2 hetero-hexamer); also called TAC antitoxin) MSIDFPLGDDLAGYIAEAIAADPSFKGTLEDAEEARRLVDALIALRKHCQLSQVEVAKRMGVRQPTVSGFEKEPSDPKLSTLQRYARALDARLRLVLEVPTLREVPTWHRLSSYRGSARDHQVRVGADKEILMQTNWARHISVRQVEVA", "values": [{"measurement": "stoichiometry N", "setting": "[4]", "result": "0.5 HigA1 chains per SecB^TA chain (printed as 4:2 Mtb-SecB^TA/HigA1)"}, {"measurement": "stoichiometry N", "setting": "[5]", "result": "0.5 HigA1 chains per SecB^TA chain (printed as 4:2 chaperone/antitoxin)"}, {"measurement": "stoichiometry N", "setting": "[2]", "result": 2}]}, {"binder": "B2", "values": [{"measurement": "Kd", "setting": "[6]", "result": "2600 ± 600", "unit": "nM"}, {"measurement": "Kd", "setting": "[7]", "result": "1900 ± 200", "unit": "nM"}, {"measurement": "dH", "setting": "[7]", "result": -12, "unit": "kcal/mol"}, {"measurement": "stoichiometry N", "setting": "[7]", "result": 0.47}, {"measurement": "Kd of the single binding events (four sites fitted, all KD's free)", "setting": "[8]", "result": "6000 to 17000", "unit": "nM"}, {"measurement": "stoichiometry N", "setting": "[8]", "result": "≤ 4", "unit": "peptides per tetramer"}]}]}
